This assay concerns the target T1, SF3B1-3 (pET15b-SF3B1-3, amino acids 955–1304) (UniProt O75533 955-1304).
T1 construct: SF3B1, amino acids 955–1304, HEAT 11–22 domain; methods are in the supplement; also called HEAT 11–22 domain of SF3B1; source: recombinant protein from pET15b-SF3B1-3
As to the kind of experiment: pull-down; cell-free system; recombinant KHSRP-KH4Q and SF3B1-3; inputs and pulled-down proteins detected by Coomassie staining and Western blotting. To be noted: both partners purified.

T1 sequence (O75533 955-1304): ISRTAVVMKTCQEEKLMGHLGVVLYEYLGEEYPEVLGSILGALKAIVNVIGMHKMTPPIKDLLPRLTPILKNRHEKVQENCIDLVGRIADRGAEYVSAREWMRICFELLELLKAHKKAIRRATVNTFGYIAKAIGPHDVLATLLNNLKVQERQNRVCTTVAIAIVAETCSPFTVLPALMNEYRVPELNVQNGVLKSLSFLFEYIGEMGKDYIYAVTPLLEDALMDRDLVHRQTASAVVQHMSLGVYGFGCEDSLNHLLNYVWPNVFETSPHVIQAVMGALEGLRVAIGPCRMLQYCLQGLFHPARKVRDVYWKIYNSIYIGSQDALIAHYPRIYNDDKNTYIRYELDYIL

B1: KHSRP-KH4Q (pET15b-KHSRP-KH4Q, amino acids 435–710) (domain or fragment, UniProt Q92945 435-710, looked up)
chain: KCGLVIGRGGENVKAINQQTGAFVEISRQLPPNGDPNFKLFIIRGSPQQIDHAKQLIEEKIEGPLCPVGPGPGGPGPAGPMGPFNPGPFNQGPPGAPPHAGGPPPHQYPPQGWGNTYPQWQPPAPHDPSKAAAAAADPNAAWAAYYSHYYQQPPGPVPGPAPAPAAPPAQGEPPQPPPTGQSDYTKAWEEYYKKIGQQPQQPGAPPQQDYTKAWEEYYKKQAQVATGGGPGAPPGSQPDYSAAWAEYYRQQAAYYGQTPGPGGPQPPPTQQGQQQA
notes: methods are in the supplement; also called KH4–Q-rich domain of KHSRP; source: recombinant protein from pET15b-KHSRP-KH4Q
As for B1, the binding result is “binds”.

The values above are taken from PMC11347664, “KHSRP ameliorates acute liver failure by regulating pre-mRNA splicing through its interaction with SF3B1” (Cell Death & Disease, 2024).
